Assay [1] addresses M. sp. JS623 type IV-B Csf2 (Cas7-like backbone subunit), N-terminally Strep-tagged (Mycobacterium sp. JS623). The assay is described as follows: cryo-EM structure.
For assay [2], the target named is M. sp. JS623 type IV-B Csf4 (Cas11 small subunit) (Mycobacterium sp. JS623). The assay is described as follows: cryo-EM structure.

In assay [1], “M. sp. JS623 type IV-B Csf2 (Cas7-like backbone subunit), N-terminally Strep-tagged (natural protein)” gave a stoichiometry N of 7. Substance “M. sp. JS623 type IV-B Csf4 (Cas11 small subunit) (natural protein)” yielded a stoichiometry N in assay [2] of 5.

Broadly, the stoichiometry N is a count of units in the complex or per binding partner.

Values taken from doi:10.1101/2020.07.31.231399.
